Laboratory results from US10500249B2, “Compositions and methods for preventing or treating diseases, conditions, or processes characterized by aberrant fibroblast proliferation and extracellular matrix deposition” (MOERAE MATRIX, INC., priority 2014, dated 2019).

Assays:
Test in all cases: Kinase Profiling Assay
Details in all cases: 100 μM
CHK2(I157T) (h) = biological target: T1, CHK2(I157T) (h) (Homo sapiens, UniProt O96017, I157T); assay type: biochemical
T1 construct: purchased Millipore
Procedure: (§1) Every kinase activity measurement was conducted in duplicate.
(§2) Specifically, in these assays, a positively charged substrate is phosphorylated with a radiolabeled phosphate group from an ATP if the kinase is not inhibited by an inhibitor peptide. The positively charged substrate then is attracted to a negatively charged filter membrane, quantified with a scintillation counter, and compared to a 100% activity control.
(§3) In addition to determining the IC50 of the compound, the specificity of MK2 inhibitory peptides was assessed by examining activities of all 266 human kinases available for testing in the Millipore kinase profiling service (Table 1).

Fer (h) = Fer (h) (Homo sapiens, UniProt P16591); assay type: biochemical
Procedure: as §1, §2, §3

Hck (h) activated = biological target: T2, Hck (h) activated (Homo sapiens, UniProt P08631); assay type: biochemical
T2 construct: purchased Millipore
Procedure: as §1, §2, §3

LOK (h) = LOK (h) (Homo sapiens, UniProt O94804); assay type: biochemical
Procedure: as §1, §2, §3

MSSK1 (h) = biological target: T3, MSSK1 (h) (Homo sapiens, UniProt Q9UPE1); assay type: biochemical
T3 construct: purchased Millipore
Procedure: as §1, §2, §3

MST3 (h) = biological target: T4, MST3 (h) (Homo sapiens, UniProt Q9Y6E0); assay type: biochemical
T4 construct: purchased Millipore
Procedure: as §1, §2, §3

PKCμ (h) = biological target: T5, PKCμ (h) (Homo sapiens, UniProt Q15139); assay type: biochemical
T5 sequence (Q15139 1-912): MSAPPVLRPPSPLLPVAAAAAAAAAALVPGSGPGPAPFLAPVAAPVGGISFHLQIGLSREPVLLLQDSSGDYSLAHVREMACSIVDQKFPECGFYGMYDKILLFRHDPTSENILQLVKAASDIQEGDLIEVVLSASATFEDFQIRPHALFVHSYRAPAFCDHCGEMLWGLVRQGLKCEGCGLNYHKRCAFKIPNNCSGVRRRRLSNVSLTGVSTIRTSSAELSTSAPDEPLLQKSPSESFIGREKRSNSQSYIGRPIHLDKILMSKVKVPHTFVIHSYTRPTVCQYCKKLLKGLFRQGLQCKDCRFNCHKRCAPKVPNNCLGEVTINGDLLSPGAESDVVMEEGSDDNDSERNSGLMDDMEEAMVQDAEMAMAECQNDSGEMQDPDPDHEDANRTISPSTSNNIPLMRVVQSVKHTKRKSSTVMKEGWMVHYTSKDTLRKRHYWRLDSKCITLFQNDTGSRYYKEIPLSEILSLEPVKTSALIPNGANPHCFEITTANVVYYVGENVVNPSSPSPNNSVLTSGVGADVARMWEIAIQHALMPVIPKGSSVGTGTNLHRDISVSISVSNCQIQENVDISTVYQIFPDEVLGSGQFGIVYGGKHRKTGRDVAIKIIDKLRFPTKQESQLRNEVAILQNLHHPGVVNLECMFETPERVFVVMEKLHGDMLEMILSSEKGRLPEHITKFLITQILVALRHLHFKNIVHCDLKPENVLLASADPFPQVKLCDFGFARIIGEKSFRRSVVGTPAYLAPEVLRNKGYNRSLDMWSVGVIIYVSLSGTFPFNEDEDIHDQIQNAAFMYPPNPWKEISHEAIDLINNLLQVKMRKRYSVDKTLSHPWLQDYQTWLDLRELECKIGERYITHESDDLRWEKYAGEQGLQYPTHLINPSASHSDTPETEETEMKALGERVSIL
Procedure: as §1, §2, §3

PTK5 (h) = PTK5 (h) (Homo sapiens, UniProt P42685); assay type: biochemical
Procedure: as §1, §2, §3

PhKγ2 (h) = biological target: T6, PhKγ2 (h) (Homo sapiens, UniProt P15735); assay type: biochemical
T6 construct: purchased Millipore
T6 sequence (P15735 1-406): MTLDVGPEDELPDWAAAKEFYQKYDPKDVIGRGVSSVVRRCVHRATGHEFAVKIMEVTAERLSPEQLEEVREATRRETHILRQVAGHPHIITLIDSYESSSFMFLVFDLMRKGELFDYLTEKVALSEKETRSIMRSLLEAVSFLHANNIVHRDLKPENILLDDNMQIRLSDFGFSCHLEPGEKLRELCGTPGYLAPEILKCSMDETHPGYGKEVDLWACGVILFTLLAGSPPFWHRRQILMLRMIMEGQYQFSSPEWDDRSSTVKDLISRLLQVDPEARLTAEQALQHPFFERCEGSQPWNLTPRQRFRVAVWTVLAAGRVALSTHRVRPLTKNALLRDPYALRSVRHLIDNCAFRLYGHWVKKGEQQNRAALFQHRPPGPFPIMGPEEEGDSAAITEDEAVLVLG
Procedure: as §1, §2, §3

Src(1-530) (h) = biological target: T7, Src(1-530) (h) (Homo sapiens, UniProt P12931); assay type: biochemical
T7 construct: Src(1-530) (h)
Procedure: as §1, §2, §3

VRK2 (h) = VRK2 (h) (Homo sapiens, UniProt Q86Y07); assay type: biochemical
Procedure: as §1, §2, §3

cKit (h) = biological target: T8, cKit (h) (Homo sapiens, UniProt P10721); assay type: biochemical
T8 construct: purchased Millipore
Procedure: as §1, §2, §3

CaMKI (h) = assay type: biochemical, human
Procedure: as §1, §2, §3

MLCK (h) = assay type: biochemical, human
Procedure: as §1, §2, §3

SGK (h) = assay type: biochemical, human
Procedure: as §1, §2, §3

T4 sequence (Q9Y6E0 whole entry): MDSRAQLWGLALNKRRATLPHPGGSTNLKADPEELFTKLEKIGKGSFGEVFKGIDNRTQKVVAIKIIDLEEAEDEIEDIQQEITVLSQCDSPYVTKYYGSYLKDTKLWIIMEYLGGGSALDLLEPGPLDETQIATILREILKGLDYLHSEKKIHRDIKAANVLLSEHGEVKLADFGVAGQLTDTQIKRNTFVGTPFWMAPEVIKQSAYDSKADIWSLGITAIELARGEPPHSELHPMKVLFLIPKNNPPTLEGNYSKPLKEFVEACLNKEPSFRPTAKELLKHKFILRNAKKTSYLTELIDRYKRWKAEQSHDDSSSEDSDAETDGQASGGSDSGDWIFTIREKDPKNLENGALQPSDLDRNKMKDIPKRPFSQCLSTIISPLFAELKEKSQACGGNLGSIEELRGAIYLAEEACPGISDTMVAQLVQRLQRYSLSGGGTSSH
VRK2 (h), sequence (Q86Y07 whole entry): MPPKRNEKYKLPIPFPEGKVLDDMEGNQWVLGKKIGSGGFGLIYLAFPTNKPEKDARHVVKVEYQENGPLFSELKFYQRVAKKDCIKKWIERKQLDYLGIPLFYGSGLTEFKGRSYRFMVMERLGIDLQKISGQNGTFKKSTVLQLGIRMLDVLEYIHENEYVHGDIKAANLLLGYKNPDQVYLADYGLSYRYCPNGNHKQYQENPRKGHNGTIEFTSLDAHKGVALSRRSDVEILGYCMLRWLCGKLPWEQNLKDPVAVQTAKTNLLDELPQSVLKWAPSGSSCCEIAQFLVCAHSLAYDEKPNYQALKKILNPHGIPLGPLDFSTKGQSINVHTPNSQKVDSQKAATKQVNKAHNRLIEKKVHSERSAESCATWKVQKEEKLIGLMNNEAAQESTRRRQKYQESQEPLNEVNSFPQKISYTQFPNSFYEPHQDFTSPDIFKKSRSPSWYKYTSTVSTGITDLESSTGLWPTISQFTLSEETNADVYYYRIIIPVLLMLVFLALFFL
T3 sequence (Q9UPE1 whole entry): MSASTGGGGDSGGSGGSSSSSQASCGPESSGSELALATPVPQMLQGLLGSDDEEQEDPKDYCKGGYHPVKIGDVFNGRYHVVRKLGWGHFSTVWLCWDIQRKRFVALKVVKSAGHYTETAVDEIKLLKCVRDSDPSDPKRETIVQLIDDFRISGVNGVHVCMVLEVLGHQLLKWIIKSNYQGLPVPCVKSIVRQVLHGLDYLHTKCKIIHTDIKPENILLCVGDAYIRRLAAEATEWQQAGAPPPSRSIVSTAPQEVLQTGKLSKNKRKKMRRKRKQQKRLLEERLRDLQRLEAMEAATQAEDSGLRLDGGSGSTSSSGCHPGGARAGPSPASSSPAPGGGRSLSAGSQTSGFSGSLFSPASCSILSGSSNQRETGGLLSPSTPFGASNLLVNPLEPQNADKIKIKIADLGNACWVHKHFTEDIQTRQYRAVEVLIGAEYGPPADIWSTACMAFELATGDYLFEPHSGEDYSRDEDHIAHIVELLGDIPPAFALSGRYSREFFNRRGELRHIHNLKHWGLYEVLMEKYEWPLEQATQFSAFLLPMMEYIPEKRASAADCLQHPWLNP
PTK5 (h), sequence (P42685 whole entry): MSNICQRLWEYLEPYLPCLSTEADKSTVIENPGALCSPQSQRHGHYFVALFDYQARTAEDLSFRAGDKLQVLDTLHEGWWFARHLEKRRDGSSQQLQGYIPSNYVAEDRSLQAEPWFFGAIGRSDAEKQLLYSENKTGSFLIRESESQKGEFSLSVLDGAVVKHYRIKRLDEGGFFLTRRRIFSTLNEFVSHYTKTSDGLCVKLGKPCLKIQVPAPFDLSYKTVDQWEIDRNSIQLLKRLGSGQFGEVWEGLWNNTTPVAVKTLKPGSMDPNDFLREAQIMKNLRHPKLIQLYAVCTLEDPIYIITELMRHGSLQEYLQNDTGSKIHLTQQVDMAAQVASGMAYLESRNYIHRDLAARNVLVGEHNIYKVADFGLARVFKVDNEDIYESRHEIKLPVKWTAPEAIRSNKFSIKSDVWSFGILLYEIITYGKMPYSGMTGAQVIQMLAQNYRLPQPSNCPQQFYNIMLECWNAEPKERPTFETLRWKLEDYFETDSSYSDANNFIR
Fer (h), sequence (P16591 whole entry): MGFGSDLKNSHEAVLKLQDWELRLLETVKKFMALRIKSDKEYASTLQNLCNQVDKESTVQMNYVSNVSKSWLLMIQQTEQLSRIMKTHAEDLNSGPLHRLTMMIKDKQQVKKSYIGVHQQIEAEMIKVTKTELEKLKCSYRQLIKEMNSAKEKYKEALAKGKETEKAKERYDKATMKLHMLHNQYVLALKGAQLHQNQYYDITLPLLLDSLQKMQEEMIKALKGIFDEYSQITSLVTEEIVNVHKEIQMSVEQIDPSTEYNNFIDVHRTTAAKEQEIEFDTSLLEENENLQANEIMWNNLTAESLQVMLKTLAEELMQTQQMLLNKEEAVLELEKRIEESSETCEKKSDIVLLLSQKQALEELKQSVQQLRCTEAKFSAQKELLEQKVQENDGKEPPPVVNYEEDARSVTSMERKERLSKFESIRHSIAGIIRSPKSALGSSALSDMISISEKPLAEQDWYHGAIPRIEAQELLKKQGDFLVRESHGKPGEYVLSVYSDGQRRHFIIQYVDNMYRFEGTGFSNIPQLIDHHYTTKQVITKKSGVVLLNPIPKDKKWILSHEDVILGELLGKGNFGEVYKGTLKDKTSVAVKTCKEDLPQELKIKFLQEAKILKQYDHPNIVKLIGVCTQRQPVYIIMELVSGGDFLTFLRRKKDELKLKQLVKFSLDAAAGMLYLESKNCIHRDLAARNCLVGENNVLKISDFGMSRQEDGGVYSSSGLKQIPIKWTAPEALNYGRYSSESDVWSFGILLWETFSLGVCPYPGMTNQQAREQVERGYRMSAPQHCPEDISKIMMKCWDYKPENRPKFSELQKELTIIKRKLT
LOK (h), sequence (O94804 whole entry): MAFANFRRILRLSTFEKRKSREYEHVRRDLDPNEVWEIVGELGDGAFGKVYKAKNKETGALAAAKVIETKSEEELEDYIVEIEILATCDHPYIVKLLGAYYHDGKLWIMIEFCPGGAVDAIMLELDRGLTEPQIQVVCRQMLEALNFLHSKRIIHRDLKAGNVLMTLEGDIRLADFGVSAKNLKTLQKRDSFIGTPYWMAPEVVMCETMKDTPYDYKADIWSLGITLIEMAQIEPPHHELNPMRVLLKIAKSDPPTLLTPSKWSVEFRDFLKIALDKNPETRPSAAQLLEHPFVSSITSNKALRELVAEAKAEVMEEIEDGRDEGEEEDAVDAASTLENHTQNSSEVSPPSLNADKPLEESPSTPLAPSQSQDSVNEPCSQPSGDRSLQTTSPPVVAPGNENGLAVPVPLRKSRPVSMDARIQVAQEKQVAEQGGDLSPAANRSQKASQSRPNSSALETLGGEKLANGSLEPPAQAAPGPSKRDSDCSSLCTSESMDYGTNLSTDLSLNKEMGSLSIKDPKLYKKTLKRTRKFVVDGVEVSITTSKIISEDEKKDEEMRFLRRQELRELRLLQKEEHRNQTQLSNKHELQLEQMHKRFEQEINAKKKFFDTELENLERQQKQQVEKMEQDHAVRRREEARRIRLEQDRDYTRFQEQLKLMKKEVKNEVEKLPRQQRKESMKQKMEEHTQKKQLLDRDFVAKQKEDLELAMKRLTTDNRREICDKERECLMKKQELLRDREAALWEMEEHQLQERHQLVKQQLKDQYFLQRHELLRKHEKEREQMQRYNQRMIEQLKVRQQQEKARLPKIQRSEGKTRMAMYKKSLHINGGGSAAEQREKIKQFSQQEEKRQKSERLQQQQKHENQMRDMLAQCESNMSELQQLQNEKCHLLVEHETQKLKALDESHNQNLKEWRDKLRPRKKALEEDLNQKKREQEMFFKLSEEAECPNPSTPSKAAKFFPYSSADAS
T1 sequence (O96017 whole entry I157T): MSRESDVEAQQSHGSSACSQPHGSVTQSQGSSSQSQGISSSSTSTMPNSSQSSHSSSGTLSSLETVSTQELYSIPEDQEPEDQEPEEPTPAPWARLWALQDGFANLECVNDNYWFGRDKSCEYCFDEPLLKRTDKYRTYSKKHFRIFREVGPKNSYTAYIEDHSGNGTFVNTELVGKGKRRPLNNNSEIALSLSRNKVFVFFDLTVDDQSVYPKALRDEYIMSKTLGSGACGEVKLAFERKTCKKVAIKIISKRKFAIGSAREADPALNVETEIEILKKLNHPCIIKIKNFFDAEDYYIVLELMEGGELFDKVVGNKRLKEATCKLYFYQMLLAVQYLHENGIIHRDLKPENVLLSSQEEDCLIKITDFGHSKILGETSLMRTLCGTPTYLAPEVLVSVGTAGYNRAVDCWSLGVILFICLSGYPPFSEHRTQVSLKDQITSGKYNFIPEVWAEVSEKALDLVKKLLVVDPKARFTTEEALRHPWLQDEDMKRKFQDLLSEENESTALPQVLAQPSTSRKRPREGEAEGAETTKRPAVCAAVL
T2 sequence (P08631 whole entry): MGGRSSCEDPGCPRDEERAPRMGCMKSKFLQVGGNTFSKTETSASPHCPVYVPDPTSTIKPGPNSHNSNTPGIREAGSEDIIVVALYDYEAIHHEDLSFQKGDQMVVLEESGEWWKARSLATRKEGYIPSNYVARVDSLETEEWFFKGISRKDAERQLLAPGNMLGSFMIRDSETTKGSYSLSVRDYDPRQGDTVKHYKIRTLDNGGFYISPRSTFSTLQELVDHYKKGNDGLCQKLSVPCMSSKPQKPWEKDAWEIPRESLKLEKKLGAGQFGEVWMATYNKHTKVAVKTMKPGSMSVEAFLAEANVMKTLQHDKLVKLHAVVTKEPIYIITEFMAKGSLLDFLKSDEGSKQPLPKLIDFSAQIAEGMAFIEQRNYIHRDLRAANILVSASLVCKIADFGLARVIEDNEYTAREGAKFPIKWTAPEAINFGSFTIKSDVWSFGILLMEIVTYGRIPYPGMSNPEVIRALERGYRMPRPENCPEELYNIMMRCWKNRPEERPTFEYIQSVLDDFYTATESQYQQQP

| Sequence | % activity (CHK2(I157T) (h)) [%] | % activity (Fer (h)) [%] | % activity (Hck (h) activated) [%] | % activity (LOK (h)) [%] | % activity (MSSK1 (h)) [%] | % activity (MST3 (h)) [%] | % activity (PKCμ (h)) [%] | % activity (PTK5 (h)) [%] | % activity (PhKγ2 (h)) [%] | % activity (Src(1-530) (h)) [%] | % activity (VRK2 (h)) [%] | % activity (cKit (h)) [%] | % activity (CaMKI (h)) [%] | % activity (MLCK (h)) [%] | % activity (SGK (h)) [%] |
| --- | --- | --- | --- | --- | --- | --- | --- | --- | --- | --- | --- | --- | --- | --- | --- |
| FAKLAARLYRKALARQLGVAA [MMI-0300] | 43 | 130 | 82 | 37 | 77 | 45 | 22 | 132 | 46 | 23 | 161 | 53 | 1 | 2 | 48 |
| HRRIKAWLKKIKALARQLGVAA (Mammalian) [MMI-0500] | 3 | 196 | 67 | 7 | 22 | 4 | 10 | 96 | 16 | 21 | 169 | 45 | −1 | 0 | 2 |
| KAFAKLAARLYRKALARQLGVAA [MMI-0400] | 41 | 108 | 81 | 18 | 75 | 36 | 14 | 129 | 38 | 19 | 185 | 43 | 0 | 1 | 54 |
| YARAAARQARAKALNRQLGVA (Mammalian) [MMI-0200] | 85 | 101 | 100 | 67 | 100 | 95 | 73 | 108 | 86 | 75 |  | 110 | 21 | 103 | 115 |
